Measured values reported in patent publication US20250295796A1, “CELL PENETRATING POLYPEPTIDES (CPPS) AND THEIR USE IN HUMAN THERAPY” (RDP PHARMA AG, priority 2021, published 2025).

Assays:
[1] = test system: HEPG2; assay: Monolayer assay, 96h treatment, HEPG2; assay type: cell-based, human; conditions: HEPG2, 96h treatment
Method: (§1) Monolayer Assay Propidium Iodid (PI). Cells were harvested from exponential phase cultures, counted and depending on the cell line 3.000 to 20.000 cells were plated in 96-well flat-bottom microtiter plates After a 24 h recovery period to allow cells to resume exponential growth, 10 μl of culture medium (four control wells/plate) or culture medium with the test compound were added by a liquid handling robotic system and treatment continued for four days. Compounds were applied in half-log increments at 10 concentrations in duplicate. Three independent experiments were performed. Cells were then washed with 200 μl PBS to remove dead cells followed by addition of 200 μl of a solution containing 7 μg/ml propidium iodide (PI) and 0.1% (v/v) Triton X-100. After an incubation period of 1-2 h at room temperature, fluorescence (FU) was measured using the Cytofluor 4000 microplate reader (excitation λ=530 nm, emission λ=620 nm) to quantify the amount of attached viable cells. Concentrations required for 50% inhibition of cell growth (IC50) were calculated by non-linear regression (log[conc. of inhibitor]versus response (% T/C)) using the analysis software GraphPad Prism®, Prism 5 for windows, version 5.01 (GraphPad Software Inc., CA).
(§2) CROMOC36—in vitro activity Human hepatocellular carcinoma cell lines IC50 values of CROMOC36 and Sorafenib, 96h treatment. […]

[2] = test system: LIXF 575L; assay: Monolayer assay, 96h treatment, LIXF 575L; assay type: cell-based, human
Method: as §1, §2

[3] = test system: PAXF 546L; assay: Propidium iodide monolayer assay, PAXF 546L; assay type: cell-based, human; conditions: four days
Method: as §1, with “Concentrations required for 50% inhibition of cell growth (IC50) were calculated by non-linear regression (log[conc. of inhibitor]versus response (% T/C)) using the analysis software GraphPad Prism®, Prism 5 for windows, version 5.01 (GraphPad Software Inc., CA).” left out
(§3) CROMOC36—in vitro activity Human pancreatic carcinoma cell lines. […] Antitumor activity was assessed after four days of CROMOC36 treatment using a propidium iodide based monolayer proliferation assay. […]

[4] = test system: PANC1; assay: Propidium iodide monolayer assay, PANC1; assay type: cell-based, human; conditions: PANC1, four days
Method: as §1, with “Concentrations required for 50% inhibition of cell growth (IC50) were calculated by non-linear regression (log[conc. of inhibitor]versus response (% T/C)) using the analysis software GraphPad Prism®, Prism 5 for windows, version 5.01 (GraphPad Software Inc., CA).” left out
as §3

[5] = test system: 80 different human tumor cell lines; assay: Monolayer SRB staining assay for 72 hours, 80 human tumor cell lines; assay type: cell-based; conditions: 55/80 cell lines, SRB 72 hours
Method: Cells were harvested from exponential phase cultures, and depending on the cell line 10.000 to 30.000 cells were plated in 96-well flat-bottom microtiter plates. After a 24 h recovery period to allow cells to resume exponential growth, supernatant was discarded and 100 μl of culture medium (eight control wells/plate) or culture medium with the test compound were added by a liquid handling robotic system (Microlab® Starlet, Hamilton) and treatment continued for 72 hrs. Compounds were applied at 9 concentrations eight wells/concentration). At least three independent experiments were performed. For SRB staining, cells were fixed with SRB01 for 1h at 4° C. (final concentration of TCA=10%) washed with a plate washer (Hydroflex, Tecan©) for five times with H2O; and stained with 100 μl of SRB02 at room temperature for 10 min following 4 washes in SRB03 and finally 100 μl of developer solution SRB04 for 5 minutes with shaking. Optical density was assessed using a plate-reader (Sunrise, Tecan©) at 540 nm. […]
To analyze the cytostatic activity in different tumor cell lines, the in vitro activity of CROMOC36 was analyzed in 80 different human tumor cell lines representing the mayor tumor indications by the Monolayer Sulphorhodamine B (SRB) staining assay for 72 hours.

[6] = test system: lung cancer, ovarian cancer and neuroblastoma and colon cancer cells; assay: SRB assay for 96 hours, cancer cells; assay type: cell-based; conditions: SRB 96 hours, various cancer cells; read-out: IC50 range
Method: (§4) Cells were harvested from exponential phase cultures, and depending on the cell line 10.000 to 30.000 cells were plated in 96-well flat-bottom microtiter plates. After a 24 h recovery period to allow cells to resume exponential growth, supernatant was discarded and 100 μl of culture medium (eight control wells/plate) or culture medium with the test compound were added by a liquid handling robotic system (Microlab® Starlet, Hamilton) and treatment continued for 72 hrs. Compounds were applied at 9 concentrations eight wells/concentration). At least three independent experiments were performed. For SRB staining, cells were fixed with SRB01 for 1h at 4° C. (final concentration of TCA=10%) washed with a plate washer (Hydroflex, Tecan©) for five times with H2O; and stained with 100 μl of SRB02 at room temperature for 10 min following 4 washes in SRB03 and finally 100 μl of developer solution SRB04 for 5 minutes with shaking. Optical density was assessed using a plate-reader (Sunrise, Tecan©) at 540 nm. Concentrations required for 50% inhibition of cell growth (IC50) were calculated by non-linear regression (log[conc. of inhibitor] versus response (% T/C)) using the analysis software GraphPad Prism®, Prism 5 for windows, version 5.01 (GraphPad Software Inc., CA). (SRB Buffers FIG. 25).

[7] = test system: primary hepatocytes; assay: SRB assay for 96 hours, primary hepatocytes; assay type: cell-based; conditions: non-tumor cells primary hepatocytes, SRB 96 hours
Method: as §4, with “After a 24 h recovery period to allow cells to resume exponential growth, supernatant was discarded and 100 μl of culture medium (eight control wells/plate) or culture medium with the test compound were added by a liquid handling robotic system (Microlab® Starlet, Hamilton) and treatment continued for 72 hrs.” left out

[8] = test system: murine Lewis lung carcinoma; assay: Lewis lung carcinoma (LLC) model, primary tumor growth and metastasis
Method: The efficacy of CROMOC36 on the Lewis lung carcinoma (LLC) model, was selected for testing the activity of CROMOC36 against primary tumor growth and metastasis formation. CROMOC36 was tested as a single agent and in combination with Cyclophosphamide (CYPP). In addition, single-agent CYPP was used as a reference compound, allowing comparison of the efficacy of CROMOC36 with a commonly used antitumor agent (summarized in FIG. 9).

[9] = test system: immortalized non-tumor cells; assay: SRB assay, cytotoxicity to non-tumor cells versus cancer cells
[10] = CROMOC36 4 mg/kg, q2dx5, single agent
[11] = combination of CROMOC36 and CYPP

B1: CROMOC36: single chain PvuII endonuclease fused at its C-terminus to DDM36, PEGylated final product used in the Examples (protein)
chain: MSHPDLNKLLELWPHIQEYQDLALKHGINDIFQDNGGKLLQVLLITGLTVLPGREGNDAVDNAGQEYELKSINIDLTKGFSTHHHMNPVIIAKYRQVPWIFAIYRGIAIEAIYRLEPKDLEFYYDKWERKWYSDGHKDINNPKIPVKYVMEHGTKIYGSGGSGGSSHPDLNKLLELWPHIQEYQDLALKHGINDIFQDNGGKLLQVLLITGLTVLPGREGNDAVDNAGQEYELKSINIDLTKGFSTHHHMNPVIIAKYRQVPWIFAIYRGIAIEAIYRLEPKDLEFYYDKWERKWYSDGHKDINNPKIPVKYVMEHGTKIYGNSGSGKKKKKGKGSGLGSGKKKDPLGSGLGSGKKKKKGKGSGLGSGKKKDPLGST
modifications: PEGylated; peptide, CROMOC36
- IC50 [1]: 13.7 nM
- IC50 [2]: 17 nM
- IC50 [3]: 6.49 nM
- IC50 [4]: ~10 nM
- IC50 [5]: ≤ 100 nM
- IC50 [6]: 0.5 to 19 nM
- IC50 [7]: > 10000 nM
- inhibition of total number of metastases ([8]; CROMOC36 0.4 mg/kg): 24%
- inhibition of total number of metastases ([8]; CROMOC36 4 mg/kg): 66%
- reduction of number of large metastases [8, 10]: 69.1%
- reduction of number of medium metastases [8, 10]: 49.2%
- reduction of number of small metastases [8, 10]: 61.2%
- tolerability ([8]; LLC model): No major issues
- inhibition of number of metastases ([8]; combination of CROMOC36 (4 mg/kg) and CYPP (180 mg/kg)): 81%
- final decrease in body weight (BW) compared to the start of the experiment [8, 11]: 3.7%
- reduction of number of large metastases [8, 11]: 89.2%
- reduction of number of medium metastases [8, 11]: 66.7%
- reduction of number of small metastases [8, 11]: 81.1%
- tumor growth inhibition (TI), primary tumor ([8]; simultaneous combination of CROMOC36 and CYPP): 85.6%
- tumor growth inhibition (TI), primary tumor ([8]; single agent, CROMOC36 s.c. q2dx5): 15.2%
- times less cytotoxic to immortalized non-tumor cells than to cancer cells [9]: 40->100
